Results as given in patent publication KR20240072325A (dated 2024).
Residue numbers refer to the chain shown, from its start. “And” between values parts separate entries of the source, which are not always exact repeats. Identical values can stand only once.

Molecular target: SARS-CoV-1 스파이크 단백질 (SARS-CoV-1 spike protein, SP) (SARS-CoV-1, UniProt P59594 14-1195)

B1: Anti-SP2에서 발현된 Fv-변이체 (expressed Fv-variant of Anti-SP2, fusion protein with sfGFP and His-tag) (other)
chain: EVQLVESAAEVRRPGASVKITCKASGYSFSTYGIQWMRQAPGQRPEWLGWIHAGTGGTKYSRKFQGRITITRDTSANTVYLDLNSLTSEDTAVYYCARCLRQAGTADDVWGQGTTVTVSS
Kd: 0.0162 µM and 0.0422 µM

B2: Anti-SP1에서 발현된 Fv-변이체 (expressed Fv-variant of Anti-SP1, fusion protein with sfGFP and His-tag) (other)
chain: B1 chain with C99G, L100R, R101T, Q102T, A103G, G104N, T105D, A106R, D107P, V109Y
Kd: 0.0417 µM and 0.0141 µM
